Target: T1, 3βHSD1 (367N)-HA (human, UniProt P14060 2-373)
T1 construct: Expressed from pCMX-HSD3B1-HA in 293T cells and immunoprecipitated with anti-HA antibody; also called HSD3B1(N)-HA; not shown: HA tag fused to HSD3B1
T1 sequence (looked up): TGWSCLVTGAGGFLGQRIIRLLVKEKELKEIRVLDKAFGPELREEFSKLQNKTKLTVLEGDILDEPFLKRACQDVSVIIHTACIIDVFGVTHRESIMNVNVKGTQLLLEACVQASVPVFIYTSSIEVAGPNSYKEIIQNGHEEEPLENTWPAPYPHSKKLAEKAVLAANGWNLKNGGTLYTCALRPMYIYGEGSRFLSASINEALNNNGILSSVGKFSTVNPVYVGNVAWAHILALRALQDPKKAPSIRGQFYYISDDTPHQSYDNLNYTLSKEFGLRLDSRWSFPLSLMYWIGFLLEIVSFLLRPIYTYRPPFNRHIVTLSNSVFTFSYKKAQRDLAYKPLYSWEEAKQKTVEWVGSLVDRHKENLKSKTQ
Assay: SILAC with high-resolution mass spectrometry; 367N-HA (heavy) and 367T-HA (light) immunoprecipitations mixed 1:1

normalized protein ratio (SILAC; 3βHSD1 (367N)-HA against 3βHSD1 (367T)-HA immunoprecipitates): 1.67
B1: AMFR (autocrine mobility factor receptor) (enzyme, UniProt Q9UKV5 1-643, looked up)
chain: MPLLFLERFPWPSLRTYTGLSGLALLGTIISAYRALSQPEAGPGEPDQLTASLQPEPPAPARPSAGGPRARDVAQYLLSDSLFVWVLVNTACCVLMLVAKLIQCIVFGPLRVSERQHLKDKFWNFIFYKFIFIFGVLNVQTVEEVVMWCLWFAGLVFLHLMVQLCKDRFEYLSFSPTTPMSSHGRVLSLLVAMLLSCCGLAAVCSITGYTHGMHTLAFMAAESLLVTVRTAHVILRYVIHLWDLNHEGTWEGKGTYVYYTDFVMELTLLSLDLMHHIHMLLFGNIWLSMASLVIFMQLRYLFHEVQRRIRRHKNYLRVVGNMEARFAVATPEELAVNNDDCAICWDSMQAARKLPCGHLFHNSCLRSWLEQDTSCPTCRMSLNIADNNRVREEHQGENLDENLVPVAAAEGRPRLNQHNHFFHFDGSRIASWLPSFSVEVMHTTNILGITQASNSQLNAMAHQIQEMFPQVPYHLVLQDLQLTRSVEITTDNILEGRIQVPFPTQRSDSIRPALNSPVERPSSDQEEGETSAQTERVPLDLSPRLEETLDFGEVEVEPSEVEDFEARGSRFSKSADERQRMLVQRKDELLQQARKRFLNKSSEDDAASESFLPSEGASSDPVTLRRRMLAAAAERRLQKQQTS
notes: It appears to be the protein of the human 293T cells, co-immunoprecipitated with HA-tagged 3βHSD1; also called gp78; ubiquitin E3-ligase AMFR
